Common to all, as to test: cell-based or functional assay
Assay [1] concerns the target T1, factor VIIIa A1/A3C1C2 dimer, Y1792F (human, UniProt P00451 20-391; P00451 1709-2351).
T1 sequence 1: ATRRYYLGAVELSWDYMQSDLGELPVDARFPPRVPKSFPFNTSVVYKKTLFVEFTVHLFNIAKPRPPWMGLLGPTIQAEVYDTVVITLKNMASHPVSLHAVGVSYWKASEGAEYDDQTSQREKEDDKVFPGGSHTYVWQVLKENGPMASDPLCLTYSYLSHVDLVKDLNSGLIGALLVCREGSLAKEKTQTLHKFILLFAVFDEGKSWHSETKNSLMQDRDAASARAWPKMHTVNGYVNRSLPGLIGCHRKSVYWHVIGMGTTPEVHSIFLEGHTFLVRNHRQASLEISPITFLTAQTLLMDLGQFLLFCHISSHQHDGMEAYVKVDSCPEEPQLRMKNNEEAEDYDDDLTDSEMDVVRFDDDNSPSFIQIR
T1 sequence 2: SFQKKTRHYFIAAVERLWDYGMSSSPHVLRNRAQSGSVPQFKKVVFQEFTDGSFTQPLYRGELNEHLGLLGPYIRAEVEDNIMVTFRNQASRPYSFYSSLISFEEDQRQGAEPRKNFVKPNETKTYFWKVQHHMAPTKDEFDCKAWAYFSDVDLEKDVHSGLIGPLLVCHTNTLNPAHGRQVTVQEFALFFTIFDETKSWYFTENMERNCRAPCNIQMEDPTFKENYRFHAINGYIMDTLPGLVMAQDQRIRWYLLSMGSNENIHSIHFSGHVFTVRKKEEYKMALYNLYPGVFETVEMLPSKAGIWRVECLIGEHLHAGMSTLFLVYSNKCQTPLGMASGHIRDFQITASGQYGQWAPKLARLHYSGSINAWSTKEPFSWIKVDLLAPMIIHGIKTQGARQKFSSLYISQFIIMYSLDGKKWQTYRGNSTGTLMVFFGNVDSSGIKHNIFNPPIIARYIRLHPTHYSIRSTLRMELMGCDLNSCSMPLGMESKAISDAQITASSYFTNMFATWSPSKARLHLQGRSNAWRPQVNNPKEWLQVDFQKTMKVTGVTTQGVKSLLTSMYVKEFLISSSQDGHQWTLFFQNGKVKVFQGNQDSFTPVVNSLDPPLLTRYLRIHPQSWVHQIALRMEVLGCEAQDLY

The target in assay [2] is T2, factor VIIIa A1/A3C1C2 dimer, Q1820A (human, UniProt P00451 20-391; P00451 1709-2351).
T2 sequence 1: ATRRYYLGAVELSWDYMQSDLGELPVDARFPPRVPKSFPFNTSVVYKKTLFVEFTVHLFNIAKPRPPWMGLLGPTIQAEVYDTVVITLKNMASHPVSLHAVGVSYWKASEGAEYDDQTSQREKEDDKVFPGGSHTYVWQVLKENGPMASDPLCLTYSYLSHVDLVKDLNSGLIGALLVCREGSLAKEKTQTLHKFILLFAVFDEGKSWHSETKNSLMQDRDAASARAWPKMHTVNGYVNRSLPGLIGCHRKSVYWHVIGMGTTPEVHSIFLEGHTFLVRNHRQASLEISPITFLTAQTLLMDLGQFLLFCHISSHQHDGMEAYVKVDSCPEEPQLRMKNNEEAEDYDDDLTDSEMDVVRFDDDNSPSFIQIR
T2 sequence 2: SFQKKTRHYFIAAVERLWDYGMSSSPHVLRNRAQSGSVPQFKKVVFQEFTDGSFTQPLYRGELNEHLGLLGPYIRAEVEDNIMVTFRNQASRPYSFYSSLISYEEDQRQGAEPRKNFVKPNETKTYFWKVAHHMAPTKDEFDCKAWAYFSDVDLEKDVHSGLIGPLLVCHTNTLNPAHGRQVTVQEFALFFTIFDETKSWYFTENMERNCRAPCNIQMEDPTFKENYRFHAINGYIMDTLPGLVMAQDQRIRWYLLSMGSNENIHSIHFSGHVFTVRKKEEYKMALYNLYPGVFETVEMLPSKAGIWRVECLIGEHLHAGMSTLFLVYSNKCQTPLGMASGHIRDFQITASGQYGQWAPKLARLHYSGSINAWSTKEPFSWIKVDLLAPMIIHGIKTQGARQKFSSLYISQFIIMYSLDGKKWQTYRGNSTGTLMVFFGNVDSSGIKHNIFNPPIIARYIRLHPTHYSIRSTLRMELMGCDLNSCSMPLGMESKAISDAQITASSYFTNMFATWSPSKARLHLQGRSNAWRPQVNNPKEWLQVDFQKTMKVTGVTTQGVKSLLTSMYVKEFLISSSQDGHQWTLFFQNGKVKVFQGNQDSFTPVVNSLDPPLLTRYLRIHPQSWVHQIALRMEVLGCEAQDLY

Assay [3] has as its target T3, factor VIIIa A1/A3C1C2 dimer, H281A (human, UniProt P00451 20-391; P00451 1709-2351).
T3 chain 1: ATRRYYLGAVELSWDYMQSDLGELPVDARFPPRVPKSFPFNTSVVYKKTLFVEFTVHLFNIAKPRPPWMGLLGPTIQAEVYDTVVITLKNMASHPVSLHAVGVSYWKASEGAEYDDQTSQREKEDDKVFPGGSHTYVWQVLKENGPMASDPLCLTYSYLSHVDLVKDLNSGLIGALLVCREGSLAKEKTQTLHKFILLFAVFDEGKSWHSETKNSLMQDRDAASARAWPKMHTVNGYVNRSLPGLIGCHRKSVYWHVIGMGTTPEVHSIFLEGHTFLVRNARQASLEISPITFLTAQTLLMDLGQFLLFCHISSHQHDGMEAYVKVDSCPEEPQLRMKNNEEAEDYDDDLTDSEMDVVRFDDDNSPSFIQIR
T3 chain 2: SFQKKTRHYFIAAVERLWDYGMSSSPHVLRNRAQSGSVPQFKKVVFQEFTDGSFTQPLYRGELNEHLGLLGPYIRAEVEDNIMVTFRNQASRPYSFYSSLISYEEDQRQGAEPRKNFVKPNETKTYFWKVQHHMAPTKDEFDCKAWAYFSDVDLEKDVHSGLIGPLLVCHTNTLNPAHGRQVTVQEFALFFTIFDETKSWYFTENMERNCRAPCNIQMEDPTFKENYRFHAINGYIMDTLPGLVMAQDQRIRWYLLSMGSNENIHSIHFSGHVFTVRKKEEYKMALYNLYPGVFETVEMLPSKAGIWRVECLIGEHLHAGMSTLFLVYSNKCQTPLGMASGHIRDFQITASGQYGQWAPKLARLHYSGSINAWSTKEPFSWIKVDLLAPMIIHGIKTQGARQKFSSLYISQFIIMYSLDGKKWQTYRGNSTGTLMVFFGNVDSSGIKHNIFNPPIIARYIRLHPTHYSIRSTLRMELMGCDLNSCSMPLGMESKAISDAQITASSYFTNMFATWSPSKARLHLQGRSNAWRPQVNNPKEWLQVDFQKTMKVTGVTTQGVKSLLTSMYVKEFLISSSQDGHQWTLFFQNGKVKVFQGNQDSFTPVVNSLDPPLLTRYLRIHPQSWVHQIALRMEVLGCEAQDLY

B1: factor VIIIa A2 subunit, wild type (other)
chain: SVAKKHPKTWVHYIAAEEEDWDYAPLVLAPDDRSYKSQYLNNGPQRIGRKYKKVRFMAYTDETFKTREAIQHESGILGPLLYGEVGDTLLIIFKNQASRPYNIYPHGITDVRPLYSRRLPKGVKHLKDFPILPGEIFKYKWTVTVEDGPTKSDPRCLTRYYSSFVNMERDLASGLIGPLLICYKESVDQRGNQIMSDKRNVILFSVFDENRSWYLTENIQRFLPNPAGVQLEDPEFQASNIMHSINGYVFDSLQLSVCLHEVAYWYILSIGAQTDFLSVFFSGYTFKHKMVYEDTLTLFPFSGETVFMSMENPGLWILGCHNSDFRNRGMTALLKVSSCDKNTGDYYEDSYEDISAYLLSKNNAIEPR
Regarding B1, in assay [1], the “Factor VIIIa decay rate relative to wild type, FIXa (+)” value was 38.4 relative to wild type; the “Factor VIIIa decay rate relative to wild type, FIXa (-)” value was 11.5 relative to wild type; the “Factor VIIIa decay rate, FIXa (+)” value came out at 0.433 min⁻¹; the “Factor VIIIa decay rate, FIXa (-)” value turned out to be 0.724 min⁻¹. Besides, in assay [2], the “Factor VIIIa decay rate relative to wild type, FIXa (+)” value is 1.01 relative to wild type and the “Factor VIIIa decay rate, FIXa (+)” value was 0.0114 min⁻¹. For the same molecule, in assay [3], the “Factor VIIIa decay rate relative to wild type, FIXa (+)” value is 3.99 relative to wild type and the “Factor VIIIa decay rate, FIXa (+)” value was determined as 0.045 min⁻¹.

These data come from US20090118184A1 (UNIVERSITY OF ROCHESTER, published 2009).
